From patent US7875585 (dated 2011)

T1: CD34 immunoprecipitated from KG1a cells (human, UniProt P28906 32-385)
T1 construct: mature; also called KG1a CD34; CD34 (Molecular Control)
T1 sequence (looked up): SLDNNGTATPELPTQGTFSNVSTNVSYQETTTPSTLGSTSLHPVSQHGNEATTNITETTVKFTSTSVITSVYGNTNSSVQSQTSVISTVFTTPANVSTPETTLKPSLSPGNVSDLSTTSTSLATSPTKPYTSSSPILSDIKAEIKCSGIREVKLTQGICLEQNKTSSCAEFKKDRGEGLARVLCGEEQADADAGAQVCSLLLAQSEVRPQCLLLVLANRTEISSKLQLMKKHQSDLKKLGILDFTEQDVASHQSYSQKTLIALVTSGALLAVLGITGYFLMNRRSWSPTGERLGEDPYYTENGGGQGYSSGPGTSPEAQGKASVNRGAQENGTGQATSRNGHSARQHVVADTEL

T2: human E-selectin on CHO-E cells (human, UniProt P16581 22-610)
T2 construct: whole, on cells; also called CD62E
T2 sequence (looked up): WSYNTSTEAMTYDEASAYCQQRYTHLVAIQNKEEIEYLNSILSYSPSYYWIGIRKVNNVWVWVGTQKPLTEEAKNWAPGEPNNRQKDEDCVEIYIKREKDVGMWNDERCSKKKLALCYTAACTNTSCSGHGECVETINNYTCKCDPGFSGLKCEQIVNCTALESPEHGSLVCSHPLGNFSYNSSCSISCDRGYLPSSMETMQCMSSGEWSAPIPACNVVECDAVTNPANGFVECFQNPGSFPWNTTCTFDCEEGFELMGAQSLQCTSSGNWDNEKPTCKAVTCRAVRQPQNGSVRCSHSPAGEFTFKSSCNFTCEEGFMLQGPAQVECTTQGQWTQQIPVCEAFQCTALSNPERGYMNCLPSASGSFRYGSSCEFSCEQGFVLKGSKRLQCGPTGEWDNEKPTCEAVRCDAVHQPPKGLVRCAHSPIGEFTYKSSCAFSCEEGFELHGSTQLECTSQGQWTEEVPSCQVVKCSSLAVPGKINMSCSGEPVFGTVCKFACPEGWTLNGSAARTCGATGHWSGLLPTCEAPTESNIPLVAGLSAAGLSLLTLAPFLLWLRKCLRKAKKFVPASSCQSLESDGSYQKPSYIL

B1: L-selectin on rat thoracic duct lymphocytes (receptor, UniProt P30836 39-372, looked up)
chain: WTYHYSERSMNWENARKFCKHNYTDLVAIQNKREIEYLEKTLPKNPTYYWIGIRKIGKTWTWVGTNKTLTKEAENWGTGEPNNKKSKEDCVEIYIKRERDSGKWNDDACHKRKAALCYTASCQPESCNRHGECVETINNNTCICDPGYYGPQCQYVIQCEPLKAPELGTMNCIHPLGDFSFQSQCAFNCSEGSELLGNAKTECGASGNWTYLEPICQVIQCMPLAAPDLGTMECSHPLANFSFTSACTFTCSEETDLIGERKTVCRSSGSWSSPSPICQKTKRSFSKIKEGDYNPLFIPVAVMVTAFSGLAFIIWLARRLKKGKKSQERMDDPY
notes: whole, on cells; also called rat L-selectin; TDL L-selectin
B2: PSGL-1 from HL60 cells (ligand, human, UniProt Q14242 42-412, looked up)
chain: QATEYEYLDYDFLPETEPPEMLRNSTDTTPLTGPGTPESTTVEPAARRSTGLDAGGAVTELTTELANMGNLSTDSAAMEIQTTQPAATEAQTTQPVPTEAQTTPLAATEAQTTRLTATEAQTTPLAATEAQTTPPAATEAQTTQPTGLEAQTTAPAAMEAQTTAPAAMEAQTTPPAAMEAQTTQTTAMEAQTTAPEATEAQTTQPTATEAQTTPLAAMEALSTEPSATEALSMEPTTKRGLFIPFSVSSVTHKGIPMAASNLSVNYPVGAPDHISVKQCLLAILILALVATIFFVCTVVLAVRLSRKGHMYPVRNYSPTEMVCISSLLPDGGEGPSATANGGLSKAKSPGLTPEPREDREGDDLTLHSFLP
modifications: HECA-452-reactive glycans
notes: mature; also called HL60 PSGL-1; PSGL-1/CLA
B3: L-selectin immunoprecipitated from KG1a cells (receptor, human, UniProt P14151 39-372, looked up)
chain: WTYHYSEKPMNWQRARRFCRDNYTDLVAIQNKAEIEYLEKTLPFSRSYYWIGIRKIGGIWTWVGTNKSLTEEAENWGDGEPNNKKNKEDCVEIYIKRNKDAGKWNDDACHKLKAALCYTASCQPWSCSGHGECVEIINNYTCNCDVGYYGPQCQFVIQCEPLEAPELGTMDCTHPLGNFSFSSQCAFSCSEGTNLTGIEETTCGPFGNWSSPEPTCQVIQCEPLSAPDLGIMNCSHPLASFSFTSACTFICSEGTELIGKKKTICESSGIWSNPSPICQKLDKSFSMIKEGDYNPLFIPVAVMVTAFSGLAFIIWLARRLKKGKKSKRSMNDPY
notes: mature; also called L-selectin (Molecular Control)

Key:
[1] = target: PSGL-1 from KG1a cells (human) (UniProt Q14242); assay: fixed KG1a cells treated with PL-1 (10 µg/ml), rat lymphocyte (L-selectin) rolling at 4.4 dynes/cm^2
[2] = target: PSGL-1 from HL60 cells (human) (UniProt Q14242); assay: fixed HL60 cells treated with PL-1 (10 µg/ml), rat lymphocyte (L-selectin) rolling at 4.4 dynes/cm^2
[3] = target: L-selectin on human lymphocytes or neutrophils (human) (UniProt P14151); assay: Stamper-Woodruff assay, human lymphocytes treated with LAM1-3, on immunoprecipitated KG1a CD44
[4] = target: L-selectin on lymphocytes (human or rat not given); assay: blot rolling assay, lymphocytes over blotted KG1a membrane protein, 2.3 dynes/cm^2
[5] = target: L-selectin on rat thoracic duct lymphocytes (rat) (UniProt P30836); assay: cell-based or functional assay
[6] = target: L-selectin on lymphocytes (human or rat not given); assay: cell-based or functional assay
[7] = target: L-selectin on human lymphocytes or neutrophils (human) (UniProt P14151); assay: cell-based or functional assay
[8] = target: L-selectin on lymphocytes (human or rat not given); assay: Stamper-Woodruff assay, equimolar amounts of KG1a CD44 and PSGL-1, 80 rpm
[9] = target: L-selectin on lymphocytes (human or rat not given); assay: Stamper-Woodruff assay, lymphocytes on immunoprecipitate spotted on glass
[10] = target: T1, CD34 immunoprecipitated from KG1a cells; assay: Stamper-Woodruff assay, 80 rpm, rat thoracic duct lymphocytes
Procedure: (§1) Lymphocytes (10^7/ml RPMI-1640 without NaBicarbonate/5'/oFBS) were overlayed onto these fixed immunoprecipitates and incubated on an orbital shaker at 80 rpm for 30 min. at 4° C. The number of adherent lymphocytes was quantified by light microscopy using an ocular grid under 100× magnification (a minimum of 5 fields/slide, 2 slides/experiment, and 3 separate experiments). Data were presented as the mean number of bound lymphocytes±standard deviation. KG1a CD34 and L-selectin control immunoprecipitates were also tested in this manner. To verify the dependence for sialic acid, glutaraldehyde-fixed spots were treated with *Vibrio cholerae* neuraminidase (0.1U/ml RPMI-1640 without NaBicarbonate/2% FBS for 1 hr at 37° C.). In addition, to verify that cellular adhesion was dependent on L-selectin, all assays included negative controls, in which lymphocytes were treated with PMA (50 ng/ml for 30 min at 37° C.) or functional blocking antibodies (anti-rat-L-selectin moAb HRL-1 or anti-human L-selectin moAb LAM1-3;10 µg/ml), or lymphocyte suspensions contained 5 mM EDTA.
(§2) [2]The average number of bound lymphocytes from 5 fields of view at 100x mag. from duplicate slides and a minimum of three experiments. […]

[11] = target: T2, human E-selectin on CHO-E cells; assay: blot rolling assay, CHO-E cells over blotted HL60 membrane protein
Procedure: The blot rolling assay was performed as previously described (Dimitroff et al., 2000). Briefly, CHO-E, CHO-P or CHO-Mock transfectants were isolated as described above, washed twice in HBSS and suspended at 10^7/ml in HBSS/10 mM HEPES/2mMCaCl_2 (H/H/Ca++)/10% glycerol. […] The blots were then placed in the parallel-plate flow chamber, and CHO transfectants (2×10^6/ml) were perfused into the chamber. After allowing the cells to come in contact with the blotting membrane, the flow rate was adjusted to exert a shear stress of 3.8 dynes/cm^2. The viscosity of 10% glycerol adhesion assay medium was considered in the calculation of shear stress values. The number of cells rolling on and between each immunostained banding region was quantified under 100× magnification within each field of view on the video monitor using molecular weight markers (Kaleidoscope Molecular Weight Markers, Bio-Rad Lab.; See Blue® from Novex, Inc.) as guides to help align and visualize the apparent molecular weights of the proteins of interest. A minimum of 3 experiments was performed and results were expressed as the mean±SD of cell rolling/field at 100× magnification. […]

[12] = target: B1; assay: Stamper-Woodruff assay, 80 rpm, rat thoracic duct lymphocytes
Procedure: as §1, §2

anti-PSGL-1 monoclonal antibody PL-1
% Control Mean Lymphocyte Binding (% of untreated control) [1]: 105
% Control Mean Lymphocyte Binding (% of untreated control) [2]: 62.5

anti-human L-selectin monoclonal antibody LAM1-3
bound cells/field left after the antibody (bound cells/field) [3]: < 10

hematopoietic cell E-selectin/L-selectin ligand (HCELL), the CD44 glycoform of KG1a cells (from UniProt P16070 21-742)
fold L-selectin ligand activity compared to other bands [4]: < 6 fold
% Control Mean Lymphocyte Binding; KG1a Cells + mocarhagin (% of untreated control) [5]: 110
% Control Mean Lymphocyte Binding; KG1a Cells +Neur. + DMSO (% of untreated control) [5]: 103
% Control Mean Lymphocyte Binding; KG1a Cells +Neur. + Tunicamycin (15 µg/ml) (% of untreated control) [5]: 34.3
% Control Mean Lymphocyte Binding; KG1a Cells +OSGE (60 µg/ml) (% of untreated control) [5]: 104
% Control Mean Lymphocyte Binding; KG1a Cells +neuraminidase (Neur.) (0.1 U/ml) (% of untreated control) [5]: 0.3
L-selectin-mediated lymphocyte adherence to KG1a cells against HL60 cells at 80 rpm, Stamper-Woodruff assay [6]: 10 fold
frequency of rolling lymphocytes on KG1a cells against HL60 cells, parallel-plate flow chamber [6]: < 5 fold
L-selectin-mediated neutrophil rolling on KG1a cells against HL60 cells, parallel-plate flow chamber [7]: 4 fold
fold lymphocyte binding compared with PSGL-1 [8]: < 10 fold
bound cells/field (bound cells/field) [9]: 362

B1
binding result [10]: no binding

B2
binding result [11]: binds

B3
binding result [12]: no binding
